Assay results published in US10632208B2, “Peptide-mediated drug delivery across epithelial barrier” (Purdue Research Foundation, priority 2017, dated 2020).

Experiments:
NF-κB(p65) [1] = assay: Immunoblot of NF-κB activation in Caco-2 cytoplasmic and nuclear extracts; type: cell-based, human; details: LAP 1000 ng/mL or TNF-α 10 ng/mL
Protocol: To extract the proteins from Caco-2 cells, cells were seeded in 6-well plates for 14-21 days. Following treatment, the cells were washed, scraped from the bottom of 6-well plates, suspended in PBS, and pelleted by centrifugation. Total protein from Caco-2 cells was extracted using the M-PER Extraction Kit (Thermo Fisher Scientific). Detergent-insoluble (membrane) and detergent-soluble (cytosolic) proteins were isolated using a Mem-Per Eukaryotic Protein Extraction Kit (Thermo Fisher Scientific) while the cytosolic and nuclear proteins were extracted using NE-PER Extraction Reagent (Thermo Fisher Scientific). To extract proteins from ileal epithelial cells, the epithelial cell fraction from ileal tissues were isolated as described above and the detergent-insoluble and the detergent-soluble proteins were isolated using a Mem-Per Eukaryotic Protein Extraction Kit.
To extract total protein from intact bacterial cells, sample solvent buffer and sonication (3 cycles of […]) were used. To isolate the cell wall-associated proteins bacterial pellets were resuspended in 0.5 ml protein extraction buffer (0.5% SDS, 10 mM Tris at pH 6.9), and incubated at 37° C. for 30 min with agitation. The samples were centrifuged (14,000×g, 10 min, 4° C.), and the supernatants (containing cell wall-associated proteins) were retained. Halt proteases and phosphatase inhibitors (Thermo Fisher Scientific) were used during all of the protein extraction procedures. The protein concentrations were determined by BCA assay (Thermo Fisher Scientific), and separated on SDS-PAGE gels (10-12.5% polyacrylamide) and electro-transferred to polyvinylidene difluoride (PVDF) membrane (Millipore). The membranes were then blocked in 5% nonfat dry milk (NFDM) in 0.1 M Tris-buffered saline, pH 7.5 (TBS) containing 0.1% Tween 20 (TBST) for at least 1 h. All of the primary antibodies were diluted in 5% bovine serum albumin (BSA) or 5% NFDM in TBST and incubated overnight. Secondary antibodies (1:2000 in 5% NFDM in TBST) incubated for 1 h at 37° C., and a chemiluminescence method was performed using LumiGLO reagent (Cell Signaling). The membranes were exposed to X-ray films or visualized using the Chemi-Doc XRS system (Bio-Rad). To immunoprobe the same membrane with another antibody, the originally bound antibodies from the membranes were removed by incubating the membranes in Restore Western Blot Stripping Buffer (Thermo Fisher Scientific) according to the manufacturer's protocol. To compare the reaction intensities, the average band densities were determined using Quantity One software (Bio-Rad). Densitometry reports represent the mean±SEM after normalization to the loading control and is presented as % change of protein with the average for untreated cells (control) set at 100%. Immunoblots and densitometric reports are representative of 2-3 independent experiments.

NF-κB(p65) [2] = assay: Confocal immunofluorescence of p65 localization in Caco-2 cells; type: cell-based, human; details: 30 min
Protocol: For antibody labeling in cells, Caco-2 cells, were grown to 40-50% confluence in four-chambered slides (Millipore). At the end of the treatment, the cells were fixed with 3.7% formaldehyde in PBS for 20 min and permeabilized and blocked with PBS containing 0.3% Triton X-100 and 3% BSA (Sigma-Aldrich) for 1 h at room temperature and then incubated with respective antibodies overnight at 4° C. Following antibody incubation, the cells were washed with PBS (3 cycles, 5 min) and incubated with FITC or Alexa Fluor 555-conjugated secondary antibody for 2 h at room temperature. The nuclei were stained with DAPI (500 ng/ml; Cell signaling) and slides were mounted in ProLong antifade reagent (Cell Signaling).
All images were acquired using a Nikon A1R MP Multiphoton (Nikon) Confocal fluorescence microscope using a 60× oil immersion objective equipped with the Nikon Elements software (Nikon) at the Purdue Bioscience Imaging Facility. The X-Z and Y-Z cross-sections were produced by orthogonal reconstructions from z-stack scanning at 0.15 μm intervals taken with 60× objective in 5 μm thick paraffin embedded tissue section. Three-dimensional reconstructions were performed using Nikon elements software (Nikon).

NF-κB = NF-κB luciferase reporter assay in RAW 264.7 cells; type: cell-based, murine; details: for NF-κB activation by LAP domains (luciferase activity): 1 μg/mL each, 6 h; for NF-κB activation: purified proteins, LPS positive control
Protocol: The NF-κB Luciferase reporter RAW 264.7 cell line (Novus Biologicals), which expresses an optimized Renilla luciferase reporter gene (RenSP) under the transcriptional control of an NF-κB response element, was used. The cells were seeded (1×10^5 cells/well) into 96-well luminometer-compatible plates for 16 h and then treated with analytes for 6 h. Media from each well were aspirated, and then 100 μL of ice-cold PBS was added to each well. The plates were then frozen solid at −80° C. overnight to completely lyse the cells, thawed back to room temperature, and luciferase assays were performed using the LightSwitch Luciferase assay kit (Novus Biologicals). Luminescence was measured as the relative luminescence units (RLU) using Spectramax (Spectramax, Molecular Devices) and reported as the relative fold change compared with that of the control cells that were treated with media alone. Recombinant human or mouse TNF-α (R&D Systems) and polymyxin B, LPS (E. coli Serotype R515, Re, TLR grade), and proteinase K (each from Sigma-Aldrich) were used.

TNF-α [reference compound]
time of appearance of cytoplasmic phospho-IκBα (Ser32) (NF-κB(p65) [1]): 15 min | time of increase in nuclear p65 and P-p65 (NF-κB(p65) [1]): 30 min | localization of p65 (NF-κB(p65) [2]; Caco-2 cells, LAP 1 μg/mL or TNF-α 10 ng/mL): in the nucleus | localization of p65 (NF-κB(p65) [2]; Hsp60 knocked-down Caco-2 cells): slight reduction in the nuclear translocation of p65

B1: C2: LAP fragment C2 (Pro649-Val866); histidine-tagged form SEQ ID NO: 9 (protein)
chain: PAHITADTGMDVLTHAIESYVSVMASDYTRGLSIRAIELVFENLRESVLTGDPDAREKMHNASALAGMAFANAFLGINHSLAHKIGPEFHIPHGRANAILMPHVIRYNALKPKKHALFPRYESFRADEDYARISRIIGFPAATTEEGVKSLVDEIIKLGKDVGIDMSLKGQNVAKKDLDAVVDTLADRAFMDQCTTANPKQPLVSELKEIYLEAYKGV
modifications: Listeria Adhesion Protein C2 domain
NF-κB activation by LAP domains (luciferase activity) (NF-κB): activity similar to the untreated control cells

B2: C1: LAP fragment C1 (Gly412-Val648); histidine-tagged form SEQ ID NO: 8 (protein)
chain: GGIGDIYNGFIPSLTLGCGSYGKNSVSQNVSATNLLNVKRIADRRNNMQWFKLPPKIFFEKYSTQYLQKMEGVERVFIVTDPGMGSFKYVDVVIEHLKKRGNDVAYQVFADVEPDPSDVTVYKGAELMKDFKPDTIIALGGGSAMDAAKGMWLFYEHPEASFFGLKQKFLDIRKRTFKYPKLGGKAKFVAIPTTSGTGSEVTPFAVITDKENNIKYPLADYELTPDVAIVDAQYVTTV
modifications: Listeria Adhesion Protein C1 domain
NF-κB activation by LAP domains (luciferase activity) (NF-κB): activity similar to the untreated control cells

B3: InlB: purified recombinant InlB protein of Listeria (protein, UniProt P0DQD2 31-630, looked up)
Internalin B: AKVQAETITVPTPIKQIFSDDAFAETIKDNLKKKSVTDAVTQNELNSIDQIIANNSDIKSVQGIQYLPNVTKLFLNGNKLTDIKPLANLKNLGWLFLDENKVKDLSSLKDLKKLKSLSLEHNGISDINGLVHLPQLESLYLGNNKITDITVLSRLTKLDTLSLEDNQISDIVPLAGLTKLQNLYLSKNHISDLRALAGLKNLDVLELFSQECLNKPINHQSNLVVPNTVKNTDGSLVTPEIISDDGDYEKPNVKWHLPEFTNEVSFIFYQPVTIGKAKARFHGRVTQPLKEVYTVSYDVDGTVIKTKVEAGTRITAPKPPTKQGYVFKGWYTEKNGGHEWNFNTDYMSGNDFTLYAVFKAETTEKAVNLTRYVKYIRGNAGIYKLPREDNSLKQGTLASHRCKALTVDREARNGGKLWYRLKNIGWTKAENLSLDRYDKMEYDKGVTAYARVRNASGNSVWTKPYNTAGAKHVNKLSVYQGKNMRILREAKTPITTWYQFSIGGKVIGWVDTRALNTFYKQSMEKPTRLTRYVSANKAGESYYKVPVADNPVKRGTLAKYKNQKLIVDCQATIEGQLWYRIRTSSTFIGWTKAANLRAQK
NF-κB activation ability after polymyxin-B treatment (NF-κB): retained the NF-κB activation ability | NF-κB activation after proteinase-K treatment (NF-κB): abolished | NF-κB activation ability after heat treatment (NF-κB; 100° C., 10 min): abolished the NF-κB activation ability | NF-κB activation (NF-κB): activated NF-κB

B4: N1: LAP fragment N1 (Met1-Pro223); histidine-tagged form SEQ ID NO: 7 (protein)
chain: MAIKENAAQEVLEVQKVIDRLADNGQKALKAFESYNQEQVDNIVHAMALAGLDQHMPLAKLAVEETGRGLYEDKCIKNIFATEYIWNNIKNNKTVGVINEDVQTGVIEIAEPVGVVAGVTPVTNPTSTTLFKAIIAIKTRNPIIFAFHPSAQRCSSAAAKVVYDAAIAAGAPEHCIQWVEKPSLEATKQLMNHDKVALVLATGGAGMVKSAYSTGKPALGVGP
modifications: Listeria Adhesion Protein N1 domain
NF-κB activation by LAP domains (luciferase activity) (NF-κB): activity similar to the untreated control cells

B5: N2: LAP fragment N2 (Gly224-Gly411); histidine-tagged form SEQ ID NO: 3 (protein)
chain: GNVPAYIDKTAKIKRSVNDIILSKSFDQGMICASEQAVIVDKEVAKEVKAEMEANKCYFVKGAEFKKLESYVINPEKGTLNPDVVGKSPAWIANQAGFKVPEDTKILVAEIKGVGDKYPLSHEKLSPVLAFIEAANQAEAFDRCEEMLVYGGLGHSAVIHSTDKEVQKAFGIRMKACRIIVNAPSAQG
modifications: Listeria Adhesion Protein N2 domain
NF-κB activation by LAP domains (luciferase activity) (NF-κB): activated NF-κB nearly as effectively as the full-length LAP

B6: InlA: purified recombinant InlA, Listeria surface protein Internalin A (protein)
chain: ATITQDTPINQIFTDTALAEKMKTVLGKTNVTDTVSQTDLDQVTTLQADRLGIKSIDGVEYLNNLTQINFSNNQLTDITPLKNLTKLVDILMNNNQIADITPLANLTNLTGLTLFNNQITDIDPLKNLTNLNRLELSSNTISDISALSGLTSLQQLSFGNQVTDLKPLANLTTLERLDISSNKVSDISVLAKLTNLESLIATNNQISDITPLGILTNLDELSLNGNQLKDIGTLASLTNLTDLDLANNQISNLAPLSGLTKLTELKLGANQISNISPLAGLTALTNLELNENQLEDISPISNLKNLTYLTLYFNNISDISPVSSLTKLQRLFFYNNKVSDVSSLANLTNINWLSAGHNQISDLTPLANLTRITQLGLNDQAWTNAPVNYKANVSIPNTVKNVTGALIAPATISDGGSYTEPDITWNLPSYTNEVSYTFSQPVTIGKGTTTFSGTVTQPLKAIFNVKFHVDGKETTKEVEAGNLLTEPAKPVKEGHTFVGWFDAQTGGTKWNFSTDKMPTNDINLYAQFSINSYTATFDNDGVTTSQTVDYQGLLQEPTAPTKEGYTFKGWYDAKTGGDKWDFATSKMPAKNITLYAQYSANSYTATFDVDGKSTTQAVDYQGLLKEPKAPTKAGYTFKGWYDEKTDGKKWDFATDKMPANDITLYAQFTKNPVAPPTTGGNTPPTTNNGGNTTPPSANIPGSDTSNTSTGNSASTTSTMNAYDPYNSKEASLPTT
NF-κB activation (NF-κB): neutral
